B1: Clone 5 (antibody, V domains shown)
VH: QVQLQESGPGLVKPSETLSLTCTVSGVSMNSNHWSWIRQAPGKELEWIGYIYYTGKTFYNPSLQSRVTVSLDTSKNQFYLKLTSVTAADTAVYYCARRAMASVQRGILRVFDLWGQGKMVTVSS
VL: DIQMTQSPSTLSASVGDRVTITCRASQIIDKWLAWYQHKPGKAPKLLIYEASNLETGVPSRFSGSGSGTEFTLTISSLQPDDFATYFCQQYKSYLPYTFGQGTKLEIK
B2: Clone 6 (antibody, V domains shown)
VH: QVQLEQSGAEVKKPGSSVKVSCKASGPMFSRSAFSWVRQAPGQGLEWMGRIIPTVDLKNYAQKFQGRVTFTADKSTATSYMELRSLKSEDTAVYYCARMGSGSSYYGMDVWGLGTTVTVSS
VL: DIVMTQSPLSLPVIPGEPASISCRSSQSLLQSNGNNYLDWYLQKPGQSPQLLIYLGSNRASGVPDRFSGSGSGTDFTLTISRVEAEDVGVYYCLQARQSSVLTFGGGTKLEIK
B3: Clone 7 (antibody, V domains shown)
VH: QVQLQESGPGLVKPSETLSLTCSVSGGPLTSSTYFWGWIRQPPGKGLEWLGSINFRGTTDNAPSLKSRVTLSIDTSTHQFSLRLSSVTAKDTAVYYCARHTQRLTVFTVVHGFDLWGQGTVVSVSS
VL: QSALTQPASVSGSPGQSITISCTGATGDIGVSDFVSWYQQHPGKAPKLIIFDVTNRPSGVSNRFSGSKSVNTASLTISGLQAEDEADYYCCLYSTRSRDWEFGGGTKLTVL

Columns and labels:
H3 LAH [1] = biological target: H3 LAH
H3 LAH [2] = experiment: ELISA on H3 LAH at 15.625 ng/mL clone 5
[3] = biological target: Recombinant HA antigen H3, A/Hong Kong/1/68 (H3N2) (influenza A virus A/Hong Kong/1/68 (H3N2)) (UniProt Q91MA7); experiment: ELISA on plate-coated recombinant HA; AUC of the absorbance (490 nm) curve
[4] = biological target: Recombinant HA antigen H2, A/Japan/305/57 (H2N2) (influenza A virus A/Japan/305/57 (H2N2)) (UniProt P03451); experiment: as above
[5] = biological target: Recombinant HA antigen H14, A/mallard/Astrakhan/263/1982 (H14N5) (influenza A virus A/mallard/Astrakhan/263/1982 (H14N5)); experiment: as above
[6] = biological target: Recombinant HA antigen A/Narita/1/2009 (H1N1pdm09) (influenza A virus A/Narita/1/2009 (H1N1pdm09)); experiment: as above
[7] = biological target: Recombinant HA antigen A/Anhui/1/2013 (H7N9) (influenza A virus A/Anhui/1/2013 (H7N9)); experiment: as above
[8] = biological target: Recombinant HA antigen H10, A/mallard/Interior Alaska/10BM01929R0/2010 (H10N7) (influenza A virus A/mallard/Interior Alaska/10BM01929R0/2010 (H10N7)); experiment: as above
[9] = biological target: Recombinant HA antigen H15, A/shearwater/Australia/2576/1979 (H15N9) (influenza A virus A/shearwater/Australia/2576/1979 (H15N9)); experiment: as above
[10] = biological target: Recombinant HA antigen H12, A/mallard/Interior Alaska/7MP0167/2007 (H12N5) (influenza A virus A/mallard/Interior Alaska/7MP0167/2007 (H12N5)); experiment: as above
[11] = biological target: Recombinant HA antigen H11, A/northern shoveler/Netherlands/18/1999 (H11N9) (influenza A virus A/northern shoveler/Netherlands/18/1999 (H11N9)); experiment: as above
[12] = biological target: Recombinant HA antigen H9, A/guinea fowl/Hong Kong/WF10/99 (H9N2) (influenza A virus A/guinea fowl/Hong Kong/WF10/99 (H9N2)); experiment: as above
[13] = biological target: Recombinant HA antigen H6, A/mallard/Sweden/81/2002 (H6N1) (influenza A virus A/mallard/Sweden/81/2002 (H6N1)); experiment: as above
[14] = biological target: Recombinant HA antigen H18, A/flat-faced bat/Peru/033/2010 (H18N11) (influenza A virus A/flat-faced bat/Peru/033/2010 (H18N11)); experiment: as above
[15] = biological target: Recombinant HA antigen H17, A/little yellow-shouldered bat/Guatemala/060/2010 (H17N10) (influenza A virus A/little yellow-shouldered bat/Guatemala/060/2010 (H17N10)); experiment: as above
[16] = biological target: Recombinant HA antigen H8, A/mallard/Sweden/24/2002 (H8N4) (influenza A virus A/mallard/Sweden/24/2002 (H8N4)); experiment: as above
[17] = biological target: Recombinant HA antigen H16, A/black-headed gull/Sweden/5/99 (H16N3) (influenza A virus A/black-headed gull/Sweden/5/99 (H16N3)); experiment: as above
[18] = biological target: Recombinant HA antigen H4, A/duck/Czechoslovakia/1956 (H4N6) (influenza A virus A/duck/Czechoslovakia/1956 (H4N6)) (UniProt P19696); experiment: as above
[19] = biological target: Recombinant HA antigen H1, A/South Carolina/1/1918 (H1N1) (influenza A virus A/South Carolina/1/1918 (H1N1)) (UniProt Q9WFX3); experiment: as above
[20] = biological target: Recombinant HA antigen H13, A/black-headed gull/Sweden/1/1999 (H13N6) (influenza A virus A/black-headed gull/Sweden/1/1999 (H13N6)); experiment: as above
[21] = biological target: Recombinant HA antigen H5, A/Laos/JP127/2004 (H5N1) (influenza A virus A/Laos/JP127/2004 (H5N1)); experiment: as above

Binder | AUC value [4] | AUC value [5] | AUC value [6] | AUC value [7] | AUC value [8] | AUC value [9] | AUC value [10] | AUC value [11] | AUC value [12] | AUC value [13] | AUC value [14] | AUC value [15] | AUC value [16] | AUC value [17] | AUC value [18] | AUC value [19] | AUC value [20] | AUC value [21] | other results
B1 |  |  |  |  |  |  |  |  |  |  |  |  |  |  |  |  |  |  | titer (H3 LAH [1]): 0.92 AU/mL; absorbance (H3 LAH [2]): 0.877 absorbance
B2 | 3310 | 3360 | 2480 | 3320 | 3330 | 3360 | 98.5 | 757 | 632 | 2800 | 3240 | 3370 | 474 | 290 | 3310 | 3360 | 117 | 3240 | AUC value [3]: 3300
B3 | 3300 | 3320 | 3350 | 3260 | 3220 | 3270 | 3340 | 300 | 3240 | 3220 | 3160 | 3350 | 3320 | 3200 | 3250 | 3320 | 1560 | 3290 | 

Reference: EP4703377A1
